T1: human FcγRIIB (NM_004001) expressed on cells (human, UniProt P31994 43-310)
T1 sequence: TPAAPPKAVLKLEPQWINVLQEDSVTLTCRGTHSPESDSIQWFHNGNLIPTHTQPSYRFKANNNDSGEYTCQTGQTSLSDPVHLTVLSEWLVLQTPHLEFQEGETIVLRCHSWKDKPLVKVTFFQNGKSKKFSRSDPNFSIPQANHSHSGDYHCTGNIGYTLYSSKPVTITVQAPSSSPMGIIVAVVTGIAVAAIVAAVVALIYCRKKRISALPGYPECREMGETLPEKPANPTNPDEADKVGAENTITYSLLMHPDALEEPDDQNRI

T2: human FcγRIIA (NM_021642) expressed on cells (human, UniProt P12318 36-317)
T2 sequence: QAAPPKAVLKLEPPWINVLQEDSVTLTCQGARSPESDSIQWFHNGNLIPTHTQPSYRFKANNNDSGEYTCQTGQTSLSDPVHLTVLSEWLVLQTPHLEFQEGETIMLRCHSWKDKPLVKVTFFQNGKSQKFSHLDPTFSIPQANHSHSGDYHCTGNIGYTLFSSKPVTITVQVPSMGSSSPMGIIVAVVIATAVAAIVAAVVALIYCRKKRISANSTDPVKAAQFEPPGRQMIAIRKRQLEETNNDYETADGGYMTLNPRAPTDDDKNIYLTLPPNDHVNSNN

T3: human OX40 expressed on HEK-Blue: OX40 cells (human, UniProt P43489 29-277)
T3 construct: also called CD134
T3 sequence: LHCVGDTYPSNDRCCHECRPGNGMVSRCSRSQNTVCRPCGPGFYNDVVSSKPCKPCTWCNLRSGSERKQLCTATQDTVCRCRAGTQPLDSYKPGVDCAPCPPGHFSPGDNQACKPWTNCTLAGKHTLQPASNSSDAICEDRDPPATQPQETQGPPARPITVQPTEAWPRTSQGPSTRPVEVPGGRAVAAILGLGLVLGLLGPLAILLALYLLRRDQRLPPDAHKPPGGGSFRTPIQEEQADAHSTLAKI


Tests used:
[1] = biological target: T1, human FcγRIIB (NM_004001) expressed on …; test: cell-based or functional assay
[2] = biological target: T2, human FcγRIIA (NM_021642) expressed on …; test: cell-based or functional assay
[3] = biological target: T1, human FcγRIIB (NM_004001) expressed on …; test: flow cytometry; Raji cells (express predominantly FcγRIIB)
Method: (§1) 2×10⁵ cells per well were seeded in 96-well plate and blocked in BSA Stain Buffer (BD Biosciences, San Jose, USA) for 30 min at 4° C. Cells were incubated with test mAbtyrin on ice for 1.5 h at 4° C. After being washed twice with BSA stain buffer, the cells were incubated with R-PE labeled anti-human or anti-mouse IgG secondary antibody (Jackson Immunoresearch Laboratories) for 45 min at 4° C. The cells were washed twice in stain buffer and then resuspended in 150 μL of Stain Buffer containing 1:200 diluted DRAQ7 live/dead stain (Cell Signaling Technology, Danvers, USA). PE and DRAQ7 signals of the stained cells were detected by Miltenyi MACSQuant flow cytometer (Miltenyi Biotec, Auburn, USA) using B2 and B4 channel respectively. Live cells were gated on DRAQ7 exclusion and the geometric mean fluorescence signals were determined for at least 10,000 live events collected. FlowJo software (Tree Star) was used for analysis. Data was plotted as the logarithm of antibody concentration versus mean fluorescence signals. Nonlinear regression analysis was performed by GraphPad Prism 6 (GraphPad Software, Inc.) and EC₅₀ values were calculated.
Raji cell is a cell line derived from B cells that express predominantly FcγRIIB. The binding of mAbtyrins on Raji cells were investigated by flow cytometry assay described for testing mAbtyrin binding to FcγR. Binding of the mAbtyrins were detected by flow cytometry using a PE-labeled Goat F(ab′) against Human IgG(γ).

[4] = biological target: T3, human OX40 expressed on HEK-Blue: OX40 …; test: flow cytometry; HEK-Blue: OX40 cells
Method: as §1
The binding of mAbtyrins on OX40 expressed on cell surface were investigated by flow cytometry assay described for testing mAbtyrin binding to FcγR. A stable HEK-Blue reporter cell line expressing human OX40 (HEK-Blue: OX40) was established by transfection OX40 expression plasmid (pUNO1-hOX40) into HEK-Blue™ Null 1 cells engineered to express a secreted embryonic alkaline phosphatase (SEAP) reporter gene under the control of NF-κB-inducible promoter (IFN-β minimal promoter). mAbtyrins were incubated with HEK-Blue: OX40 cells and the binding was detected by flow cytometry using a PE-labeled Goat F(ab′)₂ against Human IgG(γ).

[5] = biological target: T2, human FcγRIIA (NM_021642) expressed on …; test: flow cytometry; Expi293F cells transfected with FcγRIIA
Method: (§2) Plasmids expressing cDNAs encoding human FcγRI (NM_000566) (SEQ ID NO: 44), FcγRIIA (NM_021642) (SEQ ID NO: 2), FcγRIIB (NM_004001) (SEQ ID NO: 3), and FcγRIIIA (NM_000569) (SEQ ID NO: 45) (Origene) were transiently transfected into Expi293F cells by ExpiFectamine293 transfection kit (Life Technologies). Flow cytometry assays were performed 48 h after transfection.
as §1

[6] = biological target: T1, human FcγRIIB (NM_004001) expressed on …; test: flow cytometry; Raji cells (express predominantly FcγRIIB); remark: listed apart in the source
[7] = biological target: T1, human FcγRIIB (NM_004001) expressed on …; test: flow cytometry; Expi293F cells transfected with FcγRIIB
Method: as §2, §1

| % activity at 1 µg/ml with Raji cells (HEK-Blue: OX40 NF-κB reporter, relative to 1 µg/ml OX40 ligand) [1] [%] | fold of agonism enhancement upon crosslinking (Raji cells) [1] [fold] | Binding to Raji cells mean signals at 10 µg/ml [3] [mean fluorescence signal] | EC50 [3] [µg/mL] | Binding to HEK-Blue: OX40 cells (mean signal at 1 µg/ml) [4] [mean fluorescence signal] | EC50 [5] [µg/mL] | fold binding signal over OX40SF2IgG2sigma at 10 µg/mL [6] [fold] | EC50 [7] [µg/mL] | Binder | % OX40 cell killed by macrophages (ADCP, 1 µg/ml) [2] [%] |
| --- | --- | --- | --- | --- | --- | --- | --- | --- | --- |
| 88.1 | 21 | 3260 | > 10 | 8900 | 0.498 | ≥ 6 | 1.51 | OX40SF2IgG2sigma_R2BS9_HC-C (bispecific antibody, mAbtyrin: anti-OX40 antibody OX40SF2, effector silent IgG2sigma, with linker and R2BS9 FN3 domain at the C-terminus of the heavy chain; also called mAbtyrin) heavy: QVQLVQSGAEVKKPGSSVKVSCKASGYTFKDYTMHWVRQAPGQGLEWIGGIYPNNGGSTYNQNFKDRVTLTADKSTSTAYMELSSLRSEDTAVYYCARMGYHGPHLDFDVWGQGTTVTVSSASTKGPSVFPLAPCSRSTSESTAALGCLVKDYFPEPVTVSWNSGALTSGVHTFPAVLQSSGLYSLSSVVTVPSSNFGTQTYTCNVDHKPSNTKVDKTVERKCCVECPPCPAPPAAASSVFLFPPKPKDTLMISRTPEVTCVVVDVSAEDPEVQFNWYVDGVEVHNAKTKPREEQFNSTFRVVSVLTVLHQDWLNGKEYKCKVSNKGLPSSIEKTISKTKGQPREPQVYTLPPSREEMTKNQVSLTCLVKGFYPSDIAVEWESNGQPENNYKTTPPMLDSDGSFFLYSKLTVDKSRWQQGNVFSCSVMHEALHNHYTQKSLSLSPGKGGGGGSGGGGSGGGGSGGGGSLPAPKNLVVSRVTEDSARLSWTAPDAAFDSFWIYYLEYWRGGEAIVLTVPGSERSYDLTGLKPGTEYFVQIHGVKGGQYSYPLSAIFTT light: DIQMTQSPSSLSASVGDRVTITCKASQDVGAAVAWYQQKPGKAPKLLIYWASTRHTGVPSRFSGSGSGTDFTLTISSLQPEDFATYYCQQYINYPLTFGGGTKVEIKRTVAAPSVFIFPPSDEQLKSGTASVVCLLNNFYPREAKVQWKVDNALQSGNSQESVTEQDSKDSTYSLSSTLTLSKADYEKHKVYACEVTHQGLSSPVTKSFNRGEC | 85 |
| 96.3 | 31 | 2610 | > 10 | 9710 | 0.302 | ≥ 6 | 0.926 | OX40SF2IgG2sigma_R2BS12_HC-C (bispecific antibody, mAbtyrin: anti-OX40 antibody OX40SF2, effector silent IgG2sigma, with linker and R2BS12 FN3 domain at the C-terminus of the heavy chain; also called mAbtyrin) heavy: QVQLVQSGAEVKKPGSSVKVSCKASGYTFKDYTMHWVRQAPGQGLEWIGGIYPNNGGSTYNQNFKDRVTLTADKSTSTAYMELSSLRSEDTAVYYCARMGYHGPHLDFDVWGQGTTVTVSSASTKGPSVFPLAPCSRSTSESTAALGCLVKDYFPEPVTVSWNSGALTSGVHTFPAVLQSSGLYSLSSVVTVPSSNFGTQTYTCNVDHKPSNTKVDKTVERKCCVECPPCPAPPAAASSVFLFPPKPKDTLMISRTPEVTCVVVDVSAEDPEVQFNWYVDGVEVHNAKTKPREEQFNSTFRVVSVLTVLHQDWLNGKEYKCKVSNKGLPSSIEKTISKTKGQPREPQVYTLPPSREEMTKNQVSLTCLVKGFYPSDIAVEWESNGQPENNYKTTPPMLDSDGSFFLYSKLTVDKSRWQQGNVFSCSVMHEALHNHYTQKSLSLSPGKGGGGGSGGGGSGGGGSGGGGSLPAPKNLVVSRVTEDSARLSWTAPDAAFDSFLIAYAEYWEGGEAVVLTVPGSERSYDLTGLKPGTEYFVQINGVKGGFWSIPLSAIFTT light: DIQMTQSPSSLSASVGDRVTITCKASQDVGAAVAWYQQKPGKAPKLLIYWASTRHTGVPSRFSGSGSGTDFTLTISSLQPEDFATYYCQQYINYPLTFGGGTKVEIKRTVAAPSVFIFPPSDEQLKSGTASVVCLLNNFYPREAKVQWKVDNALQSGNSQESVTEQDSKDSTYSLSSTLTLSKADYEKHKVYACEVTHQGLSSPVTKSFNRGEC | 92 |

Reference: patent US20190062420A1 (Janssen / Centocor, published 2019)
